# Measurements: paper doi:10.1101/2020.04.14.041327 (bioRxiv, 2020)
# B1: Human NEMO 258-350 C347S (NEMO UBAN domain) (domain or fragment)
# chain: MQLEDLKQQLQQAEEALVAKQEVIDKLKEEAEQHKIVMETVPVLKAQADIYKADFQAERQAREKLAEKKELLQEQLEQLQREYSKLKASSQES
# What was measured:
# [1] = molecular target: linear M1-linked tetra-ubiquitin (UniProt P0CG48); experiment: SPR
# [2] = molecular target: linear M1-linked tri-ubiquitin (UniProt P0CG48); experiment: SPR
# [3] = molecular target: linear M1-linked tetra-ubiquitin (UniProt P0CG48); experiment: SEC-MALS
# SEC-MALS = molecular target: the molecule itself; experiment: SEC-MALS
# [4] = molecular target: linear M1-linked tri-ubiquitin (UniProt P0CG48); experiment: SEC-MALS
# [5] = molecular target: linear M1-linked tetra-ubiquitin (UniProt P0CG48); experiment: ITC
# [6] = molecular target: linear M1-linked tri-ubiquitin (UniProt P0CG48); experiment: ITC
# linear M1-linked tetra-ubiquitin, sequence (P0CG48 1-304): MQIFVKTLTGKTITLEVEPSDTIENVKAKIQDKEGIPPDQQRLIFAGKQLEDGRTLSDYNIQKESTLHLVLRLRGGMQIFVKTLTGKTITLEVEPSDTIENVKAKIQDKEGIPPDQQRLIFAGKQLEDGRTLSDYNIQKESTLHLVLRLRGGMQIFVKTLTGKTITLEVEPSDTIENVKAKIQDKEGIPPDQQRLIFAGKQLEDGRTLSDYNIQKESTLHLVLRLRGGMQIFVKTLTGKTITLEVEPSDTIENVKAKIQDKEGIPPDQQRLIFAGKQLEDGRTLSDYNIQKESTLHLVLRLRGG
# linear M1-linked tri-ubiquitin, sequence (P0CG48 1-228): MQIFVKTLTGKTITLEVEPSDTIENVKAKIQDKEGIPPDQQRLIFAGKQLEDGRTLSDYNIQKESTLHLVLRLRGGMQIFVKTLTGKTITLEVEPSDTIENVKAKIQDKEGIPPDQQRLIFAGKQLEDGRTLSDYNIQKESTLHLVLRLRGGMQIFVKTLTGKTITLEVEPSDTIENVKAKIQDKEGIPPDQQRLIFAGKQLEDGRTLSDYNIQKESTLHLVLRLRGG
binder,measurement,setting,value
B1,Kd,[1],6.4 µM
same,Kd,[2],9.6 µM
same,stoichiometry N,[3],2 NEMO monomers per poly-ubiquitin
same,binding result,SEC-MALS,binds
same,stoichiometry N,[4],2 NEMO monomers per poly-ubiquitin
same,Kd,[5],4.1 µM
same,dH,[5],-18.8 kJ/mol
same,Kd,[6],1600 nM
same,dH,[6],-17.9 kJ/mol
